Measurements from patent US12467053 (BIOMOLECULAR, dated 2025).

Columns and labels:
TNF-alpha (R&D Systems) [1] = molecular target: T1, TNF-alpha (R&D Systems) (UniProt P01375 77-233); experiment: Biacore T-100 SPR, response against TNF-alpha concentration. Symmetroadhesin amine-coupled to a CM-5 chip.
T1 construct: also called tumor necrosis factor α; TNF-α

TNF-alpha (R&D Systems) [2] = molecular target: T1, TNF-alpha (R&D Systems); experiment: Biacore T-100 SPR, response against TNF-alpha concentration. Symmetroadhesin thiol-coupled to a CM-5 chip.

T1 sequence (P01375 77-233 limits assumed): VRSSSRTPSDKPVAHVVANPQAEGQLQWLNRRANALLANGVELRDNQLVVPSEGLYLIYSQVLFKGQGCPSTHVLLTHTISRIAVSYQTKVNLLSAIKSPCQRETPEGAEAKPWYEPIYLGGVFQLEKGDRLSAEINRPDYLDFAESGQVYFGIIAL

B1: TNR1B symmetroadhesin of FIG. 44A (iv) (human TNR1B extracellular domain with a C-terminal-X-terminus) (receptor)
chain: LPAQVAFTPYAPEPGSTCRLREYYDQTAQMCCSKCSPGQHAKVFCTKTSDTVCDSCEDSTYTQLWNWVPECLSCGSRCSSDQVETQACTREQNRICTCRPGWYCALSKQEGCRLCAPLRKCRPGFGVARPGTETSDVVCKPCAPGTFSNTTSSTDICRPHQICNVVAIPGNASMDAVCTSTSPTRSMAPGAVHLPQPVSTRSQHTQPTPEPSTAPSTSFLLPMGPSPPAEGSTGDGC
modifications: C-terminal X residue (residue 237) added by native chemical ligation; cysteine in the material made (cleavage/elution with cysteine)
notes: The same molecule was immobilised by amine chemistry and by thiol chemistry; also called TNR1B-X; TNR2-X
TNF-alpha (R&D Systems) [1]
  EC50 (read off the curve): ~4 nM
TNF-alpha (R&D Systems) [2]
  EC50 (read off the curve): ~0.9 nM
